Measurements taken from article PMC11116813 (2024).

Columns and labels:
Test in all cases: ITC
[1] = molecular target: T1, full-length human HP1α WT (hHP1α), recombinant (human, UniProt P45973 1-191)
[2] = molecular target: human HP1α chromoshadow domain (CSD), recombinant (human)
[3] = molecular target: T1, full-length human HP1α WT (hHP1α), …; remark: listed apart in the source
[4] = molecular target: human HP1α chromoshadow domain (CSD), recombinant (human); remark: listed apart in the source

Chain of human HP1α chromoshadow domain (CSD), recombinant (human) (chain, as listed by the source): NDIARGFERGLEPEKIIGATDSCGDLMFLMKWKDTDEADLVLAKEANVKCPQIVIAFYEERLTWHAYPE
T1 sequence (P45973 whole entry, the tested form may be a part): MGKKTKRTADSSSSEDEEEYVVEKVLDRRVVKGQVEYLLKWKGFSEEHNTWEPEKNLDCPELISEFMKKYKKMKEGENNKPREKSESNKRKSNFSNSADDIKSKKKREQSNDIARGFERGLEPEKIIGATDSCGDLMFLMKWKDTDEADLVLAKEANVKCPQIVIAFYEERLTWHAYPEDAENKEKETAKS

Binder | Ka [1] [M⁻¹] | Kd [2] [nM] | Kd [3] [nM] | Ka [4] [M⁻¹]
human INCENP (121-270) WT -6His, GST removed (domain or fragment) LRRVTRAAAAAAAATMALAAPSSPTPESPTMLTKKPEDNHTQCQLVPVVEIGISERQNAEQHVTQLMSTEPLPRTLSPTPASATAPTSQGIPTSDEESTPKKSKARILESITVSSLMATPQDPKGQGVGTGRSASKLRIAQVSPGPRDSP | 2.35e+07 | – | – | –
human INCENP (160-210) -6His, GST removed (domain or fragment) HTQCQLVPVVEIGISERQNAEQHVTQLMSTEPLPRTLSPTPASATAPTSQG | 3.9e+07 | 39 | 25 | 2.56e+07
human INCENP (121-210) -6His, GST removed (Fig. 2D) (domain or fragment) LRRVTRAAAAAAAATMALAAPSSPTPESPTMLTKKPEDNHTQCQLVPVVEIGISERQNAEQHVTQLMSTEPLPRTLSPTPASATAPTSQG | 7.25e+07 | – | 14 | –
human Sgo1 fragment (405-494), Tyr-added, GST removed (domain or fragment) YAKRALKYTDEKETEGSKPTKTPTTTPPETQQSPHLSLKDITNVSLYPVVKIRRLSLSPKKNKASPAVALPKRRCTASVNYKEPTLASKLR | 242000 | – | – | –
human INCENP fragment (121-210) WT used in Fig. 6A (domain or fragment) YLRRVTRAAAAAAAATMALAAPSSPTPESPTMLTKKPEDNHTQCQLVPVVEIGISERQNAEQHVTQLMSTEPLPRTLSPTPASATAPTSQG | 1.82e+07 | – | 55 | –
YHTQCQLVPVVEIGISERQNAEQHVTQLMSTEPL (domain or fragment) [human INCENP (160-192), untagged version (Tyr-added), GST removed] | – | 39 | – | 2.57e+07
